The record followed here is paper doi:10.1101/2023.02.23.529715 (bioRxiv, 2023).

Where two headings read alike, the source gives them in different places.

The target in series [1] is GFP-HilD (Salmonella enterica) (UniProt P0CL08). In words: MST.
Series [2] has the same target. The series is described as follows: MST. The source holds these as a separate data set.
The target of series [3] is HilD (full length, unfused) (Salmonella enterica) (UniProt P0CL08). The series is described as follows: SEC-MALS. Background: Size exclusion chromatography separates by hydrodynamic size, large species first.
The target in series [4] is HilD N-terminal domain (HilD NTD, residues 7-206) (Salmonella enterica) (UniProt P0CL08). The series is described as follows: SEC-MALS.
Series [5] deals with T1, GFP-HilD (Salmonella enterica, UniProt P0CL08 1-309).
T1 sequence (looked up): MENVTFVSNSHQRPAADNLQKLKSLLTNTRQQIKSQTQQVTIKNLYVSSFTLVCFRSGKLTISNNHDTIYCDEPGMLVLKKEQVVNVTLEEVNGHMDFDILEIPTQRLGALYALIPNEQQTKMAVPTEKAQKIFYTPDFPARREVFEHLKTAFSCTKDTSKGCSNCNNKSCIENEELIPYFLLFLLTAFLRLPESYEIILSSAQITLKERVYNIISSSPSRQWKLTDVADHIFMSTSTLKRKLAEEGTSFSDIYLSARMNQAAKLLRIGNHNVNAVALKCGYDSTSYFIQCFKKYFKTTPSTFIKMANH
The series is described as follows: MST.

Series [6] concerns the molecule itself. The series is described as follows: SEC-MALS.
Series [7] has as its target T1, GFP-HilD. The series is described as follows: MST. The source holds these as a separate data set.

The Kd is the free concentration of one partner at which half of the binding sites on the other are occupied at equilibrium, for simple one-to-one binding. Low values mean higher affinity, high ones lower affinity. In general, stoichiometry N refers to the number of molecules, sites or subunits per partner or assembly.

Consider HilE (natural protein), for which the equilibrium dissociation constant (Kd) was 1700 nM in series [1] and 1680 nM in series [2]. This molecule also came in with a stoichiometry N (HilE per HilD) in series [3] of 1. This molecule came in with a stoichiometry N (HilE per HilD NTD) in series [4] of 1.

B1: HilD (full length, unfused) (natural protein, Salmonella enterica, UniProt P0CL08 1-309, looked up)
chain: MENVTFVSNSHQRPAADNLQKLKSLLTNTRQQIKSQTQQVTIKNLYVSSFTLVCFRSGKLTISNNHDTIYCDEPGMLVLKKEQVVNVTLEEVNGHMDFDILEIPTQRLGALYALIPNEQQTKMAVPTEKAQKIFYTPDFPARREVFEHLKTAFSCTKDTSKGCSNCNNKSCIENEELIPYFLLFLLTAFLRLPESYEIILSSAQITLKERVYNIISSSPSRQWKLTDVADHIFMSTSTLKRKLAEEGTSFSDIYLSARMNQAAKLLRIGNHNVNAVALKCGYDSTSYFIQCFKKYFKTTPSTFIKMANH
On to B1, for which the values for the Kd in series [5] and in series [7] were 4520 ± 500 nM and 3390 ± 770 nM, respectively. Moreover, the “stoichiometry N” value in series [6] stood at 2.

B2: HilD N-terminal domain (HilD NTD, residues 7-206) (domain or fragment, Salmonella enterica, UniProt P0CL08 7-206, looked up)
chain: VSNSHQRPAADNLQKLKSLLTNTRQQIKSQTQQVTIKNLYVSSFTLVCFRSGKLTISNNHDTIYCDEPGMLVLKKEQVVNVTLEEVNGHMDFDILEIPTQRLGALYALIPNEQQTKMAVPTEKAQKIFYTPDFPARREVFEHLKTAFSCTKDTSKGCSNCNNKSCIENEELIPYFLLFLLTAFLRLPESYEIILSSAQIT
Take B2: the “stoichiometry N” value in series [6] was found to be 2.
